The target of assay [1] is Recombinant neuraminidase (N2) from H3N2 A/Tanzania/205/2010 (influenza A virus H3N2 A/Tanzania/205/2010). Kind of assay: cryo-EM structure.
In assay [2] the target is Recombinant neuraminidase (N2) from H3N2 A/Tanzania/205/2010 with S245N and S247T mutations (influenza A virus H3N2 A/Tanzania/205/2010). Kind of assay: cryo-EM structure.

By stoichiometry N is commonly meant a count of units in the complex or per binding partner.

As for “Recombinant neuraminidase (N2) from H3N2 A/Tanzania/205/2010 (enzyme)”, the stoichiometry N in assay [1] was 4.
Take “Recombinant neuraminidase (N2) from H3N2 A/Tanzania/205/2010 with S245N and S247T mutations (enzyme)”: in assay [2], the stoichiometry N is 4.

For the origin of these results see article PMC10266979.
